# B1: Spastin (Homo sapiens), Q9UBP0-1 (parent)
# chain: MNSPGGRGKKKGSGGASNPVPPRPPPPCLAPAPPAAGPAPPPESPHKRNLYYFSYPLFVGFALLRLVAFHLGLLFVWLCQRFSRALMAAKRSSGAAPAPASASAPAPVPGGEAERVRVFHKQAFEYISIALRIDEDEKAGQKEQAVEWYKKGIEELEKGIAVIVTGQGEQCERARRLQAKMMTNLVMAKDRLQLLEKMQPVLPFSKSQTDVYNDSTNLACRNGHLQSESGAVPKRKDPLTHTSNSLPRSKTVMKTGSAGLSGHHRAPSYSGLSMVSGVKQGSGPAPTTHKGTPKTNRTNKPSTPTTATRKKKDLKNFRNVDSNLANLIMNEIVDNGTAVKFDDIAGQDLAKQALQEIVILPSLRPELFTGLRAPARGLLLFGPPGNGKTMLAKAVAAESNATFFNISAASLTSKYVGEGEKLVRALFAVARELQPSIIFIDEVDSLLCERREGEHDASRRLKTEFLIEFDGVQSAGDDRVLVMGATNRPQELDEAVLRRFIKRVYVSLPNEETRLLLLKNLLCKQGSPLTQKELAQLARMTDGYSGSDLTALAKDAALGPIRELKPEQVKNMSASEMRNIRLSDFTESLKKIKRSVSPQTLEAYIRWNKDFGDTTV
# Variants of: B1
# Details: with fxl17_human FBXL17, Q9UF56
# Chain of fxl17_human FBXL17, Q9UF56 (Q9UF56 whole entry): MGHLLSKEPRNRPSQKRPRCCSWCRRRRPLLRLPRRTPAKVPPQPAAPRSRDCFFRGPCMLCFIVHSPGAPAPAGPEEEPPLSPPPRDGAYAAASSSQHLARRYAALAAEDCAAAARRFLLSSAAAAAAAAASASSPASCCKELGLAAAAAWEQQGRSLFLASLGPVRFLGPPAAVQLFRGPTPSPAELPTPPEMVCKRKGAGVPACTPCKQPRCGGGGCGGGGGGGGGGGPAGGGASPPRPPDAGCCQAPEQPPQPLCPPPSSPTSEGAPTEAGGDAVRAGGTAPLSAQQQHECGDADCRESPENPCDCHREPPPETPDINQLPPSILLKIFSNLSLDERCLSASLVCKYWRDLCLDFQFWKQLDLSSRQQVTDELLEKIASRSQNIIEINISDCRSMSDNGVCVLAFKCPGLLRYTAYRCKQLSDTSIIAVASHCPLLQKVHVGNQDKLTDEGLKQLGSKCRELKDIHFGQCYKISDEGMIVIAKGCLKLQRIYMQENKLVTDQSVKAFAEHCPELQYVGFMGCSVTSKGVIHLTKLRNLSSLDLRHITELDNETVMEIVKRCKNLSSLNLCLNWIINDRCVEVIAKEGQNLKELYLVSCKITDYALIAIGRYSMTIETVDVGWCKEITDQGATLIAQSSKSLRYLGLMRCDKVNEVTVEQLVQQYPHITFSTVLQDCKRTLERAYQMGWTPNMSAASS
row,effect of a mutation on the interaction,Variant
1,disrupting interaction strength,Y52C

# From IntAct's records for PubMed 35869491
